Laboratory results: patent US20110059888A1
[ ]: non-standard residue; d: D form. Phe(3-Me) = Cc1cccc(C[C@H](N)C(=O)O)c1; Phe(4-Me) = Cc1ccc(C[C@H](N)C(=O)O)cc1; Phe(2-Me) = Cc1ccccc1C[C@H](N)C(=O)O; Arg(Me) = CNC(=N)NCCC[C@H](N)C(=O)O; Dap(CONH2) = NC(=O)NC[C@H](N)C(=O)O; Ala(cPr) = N[C@@H](CC1CC1)C(=O)O; Hyp = O=C(O)[C@@H]1C[C@@H](O)CN1; αMeF = C[C@](N)(Cc1ccccc1)C(=O)O; Aad = N[C@@H](CCCC(=O)O)C(=O)O; Cha = N[C@@H](CC1CCCCC1)C(=O)O; Cit = NC(=O)NCCC[C@H](N)C(=O)O; Abu = CC[C@H](N)C(=O)O; Aib = CC(C)(N)C(=O)O

B1: des(1)-Ac-[D-Tyr2,Glu3,Thr5,Cha6,Ala(cPr)8,Arg(Me)9,Trp10]MS10 (peptide)
peptide: Ac-[dY]ENT[Cha]G[Ala(cPr)][Arg(Me)]W-NH2
SMILES: CNC(=N)NCCC[C@H](NC(=O)[C@H](CC1CC1)NC(=O)CNC(=O)[C@H](CC1CCCCC1)NC(=O)[C@@H](NC(=O)[C@H](CC(N)=O)NC(=O)[C@H](CCC(=O)O)NC(=O)[C@@H](Cc1ccc(O)cc1)NC(C)=O)[C@@H](C)O)C(=O)N[C@@H](Cc1c[nH]c2ccccc12)C(N)=O
B2: des(1)-Ac-[D-Tyr2,Hyp3,Thr5,Phe(4Me)6,Arg(Me)9,Trp10]MS10 (peptide)
peptide: Ac-[dY][Hyp]NT[Phe(4-Me)]GL[Arg(Me)]W-NH2
B3: des(1)-Ac-[D-Tyr2,Hyp3,Thr5,Gly7Ψ(CH2CH2)Leu8,Arg(Me)9,Trp10]MS10 (peptide)
peptide: Ac-[dY][Hyp]NTFGL[Arg(Me)]W-NH2
modifications: also: Gly6-Leu7 amide replaced by CH2CH2
B4: des(1)-Ac-[D-Tyr2,Glu3,Thr5,Cha6,Gly7Ψ((E)CH═CH)Leu8,Arg(Me)9,Trp10]MS10 (peptide)
peptide: Ac-[dY]ENT[Cha]GL[Arg(Me)]W-NH2
modifications: also: Gly7-Leu8 amide bond replaced by (E)-CH═CH-
B5: des(1)-Ac-[D-Tyr2,Asp3,Thr5,Cha6,Ala(cPr)8,Arg(Me)9,Trp10]MS10 (peptide)
peptide: Ac-[dY]DNT[Cha]G[Ala(cPr)][Arg(Me)]W-NH2
SMILES: CNC(=N)NCCC[C@H](NC(=O)[C@H](CC1CC1)NC(=O)CNC(=O)[C@H](CC1CCCCC1)NC(=O)[C@@H](NC(=O)[C@H](CC(N)=O)NC(=O)[C@H](CC(=O)O)NC(=O)[C@@H](Cc1ccc(O)cc1)NC(C)=O)[C@@H](C)O)C(=O)N[C@@H](Cc1c[nH]c2ccccc12)C(N)=O
B6: des(1)-Ac-[D-Tyr2,Hyp3,Thr5,αMePhe6,Arg(Me)9,Trp10]MS10 (peptide)
peptide: Ac-[dY][Hyp]NT[αMeF]GL[Arg(Me)]W-NH2
SMILES: CNC(=N)NCCC[C@H](NC(=O)[C@H](CC(C)C)NC(=O)CNC(=O)[C@](C)(Cc1ccccc1)NC(=O)[C@@H](NC(=O)[C@H](CC(N)=O)NC(=O)[C@@H]1C[C@@H](O)CN1C(=O)[C@@H](Cc1ccc(O)cc1)NC(C)=O)[C@@H](C)O)C(=O)N[C@@H](Cc1c[nH]c2ccccc12)C(N)=O
B7: des(1)-Ac-[D-Tyr2,Hyp3,Thr5,Abu7,Arg(Me)9,Trp10]MS10 (peptide)
peptide: Ac-[dY][Hyp]NTF[Abu]L[Arg(Me)]W-NH2
B8: des(1)-Ac-[D-Tyr2,Hyp3,Thr5,Cha6,Gly7Ψ((E)CH═CH)Leu8,Arg(Me)9,Trp10]MS10 (peptide)
peptide: Ac-[dY][Hyp]NT[Cha]GL[Arg(Me)]W-NH2
modifications: also: Gly6-Leu7 amide replaced by (E)CH=CH
B9: des(1)-Ac-[D-Tyr2,Glu3,Alb4,Thr5,Gly7Ψ((E)CH═CH)Leu8,Arg(Me)9,Trp10]MS10 (peptide)
peptide: Ac-[dY]E[Dap(CONH2)]TFGL[Arg(Me)]W-NH2
modifications: also: Gly7-Leu8 amide bond replaced by (E)-CH═CH-
B10: des(1)-Ac-[D-Tyr2,Aib3,Thr5,Cha6,Ala(cPr)8,Arg(Me)9,Trp10]MS10 (peptide)
peptide: Ac-[dY][Aib]NT[Cha]G[Ala(cPr)][Arg(Me)]W-NH2
SMILES: CNC(=N)NCCC[C@H](NC(=O)[C@H](CC1CC1)NC(=O)CNC(=O)[C@H](CC1CCCCC1)NC(=O)[C@@H](NC(=O)[C@H](CC(N)=O)NC(=O)C(C)(C)NC(=O)[C@@H](Cc1ccc(O)cc1)NC(C)=O)[C@@H](C)O)C(=O)N[C@@H](Cc1c[nH]c2ccccc12)C(N)=O
B11: des(1)-Ac-[D-Tyr2,Hyp3,Alb4,Thr5,Arg(Me)9,Trp10]MS10 (peptide)
peptide: Ac-[dY][Hyp][Dap(CONH2)]TFGL[Arg(Me)]W-NH2
SMILES: CNC(=N)NCCC[C@H](NC(=O)[C@H](CC(C)C)NC(=O)CNC(=O)[C@H](Cc1ccccc1)NC(=O)[C@@H](NC(=O)[C@H](CNC(N)=O)NC(=O)[C@@H]1C[C@@H](O)CN1C(=O)[C@@H](Cc1ccc(O)cc1)NC(C)=O)[C@@H](C)O)C(=O)N[C@@H](Cc1c[nH]c2ccccc12)C(N)=O
B12: des(1)-Ac-[D-Tyr2,Hyp3,Cit4,Thr5,Cha6,Gly7Ψ((E)CH═CH)Leu8,Arg(Me)9,Trp10]MS10 (peptide)
peptide: Ac-[dY][Hyp][Cit]T[Cha]GL[Arg(Me)]W-NH2
modifications: also: Gly7Ψ((E)CH═CH)Leu8: amide between Gly and Leu replaced by (E) alkene
B13: des(1)-Ac-[D-Tyr2,Hyp3,Thr5,Cha6,Ala(cPr)8,Arg(Me)9,Trp10]MS10 (peptide)
peptide: Ac-[dY][Hyp]NT[Cha]G[Ala(cPr)][Arg(Me)]W-NH2
B14: des(1)-Ac-[D-Tyr2,Glu3,Alb4,Thr5,Cha6,Gly7Ψ((E)CH═CH)Leu8,Arg(Me)9,Trp10]MS10 (peptide)
peptide: Ac-[dY]E[Dap(CONH2)]T[Cha]GL[Arg(Me)]W-NH2
modifications: also: Gly7-Leu8 amide bond replaced by (E)-CH═CH-
B15: des(1)-Ac-[D-Tyr2,Hyp3,Alb4,Thr5,Gly7Ψ((E)CH═CH)Leu8,Arg(Me)9,Trp10]MS10 (peptide)
peptide: Ac-[dY][Hyp][Dap(CONH2)]TFGL[Arg(Me)]W-NH2
modifications: also: Gly7Ψ((E)CH═CH)Leu8: amide between Gly and Leu replaced by (E) alkene
B16: des(1)-Ac-[D-Tyr2,Hyp3,Thr5,Ala(cPr)8,Arg(Me)9,Trp10]MS10 (peptide)
peptide: Ac-[dY][Hyp]NTFG[Ala(cPr)][Arg(Me)]W-NH2
B17: des(1)-Ac-[D-Tyr2,Hyp3,Gln4,Thr5,Cha6,Gly7Ψ((E)CH═CH)Leu8,Arg(Me)9,Trp10]MS10 (peptide)
peptide: Ac-[dY][Hyp]QT[Cha]GL[Arg(Me)]W-NH2
modifications: also: Gly7Ψ((E)CH═CH)Leu8: amide between Gly and Leu replaced by (E) alkene
B18: des(1)-Ac-[D-Tyr2,Hyp3,Thr5,Gly7Ψ((E)CH═CH)Leu8,Arg(Me)9,Trp10]MS10 (peptide)
peptide: Ac-[dY][Hyp]NTFGL[Arg(Me)]W-NH2
modifications: also: Gly6-Leu7 amide replaced by (E)CH=CH
B19: des(1)-Ac-[D-Tyr2,Aad3,Thr5,Cha6,Ala(cPr)8,Arg(Me)9,Trp10]MS10 (peptide)
peptide: Ac-[dY][Aad]NT[Cha]G[Ala(cPr)][Arg(Me)]W-NH2
SMILES: CNC(=N)NCCC[C@H](NC(=O)[C@H](CC1CC1)NC(=O)CNC(=O)[C@H](CC1CCCCC1)NC(=O)[C@@H](NC(=O)[C@H](CC(N)=O)NC(=O)[C@H](CCCC(=O)O)NC(=O)[C@@H](Cc1ccc(O)cc1)NC(C)=O)[C@@H](C)O)C(=O)N[C@@H](Cc1c[nH]c2ccccc12)C(N)=O
B20: des(1)-Ac-[D-Tyr2,Lys3,Thr5,Cha6,Ala(cPr)8,Arg(Me)9,Trp10]MS10 (peptide)
peptide: Ac-[dY]KNT[Cha]G[Ala(cPr)][Arg(Me)]W-NH2
modifications: not fully specified; printed as Ac-D-Tyr-Lys-Asn-Thr-Cha-Gly-Ala(cPr)-Arg(Me)-Trp-NH2
B21: des(1)-Ac-[D-Tyr2,Hyp3,Thr5,Ala7,Arg(Me)9,Trp10]MS10 (peptide)
peptide: Ac-[dY][Hyp]NTFAL[Arg(Me)]W-NH2
B22: des(1)-Ac-[D-Tyr2,Hyp3,Thr5,Cha6,8,Arg(Me)9,Trp10]MS10 (peptide)
peptide: Ac-[dY][Hyp]NT[Cha]G[Cha][Arg(Me)]W-NH2
B23: des(1)-Ac-[D-Tyr2,Hyp3,Thr5,Phe(2Me)6,Arg(Me)9,Trp10]MS10 (peptide)
peptide: Ac-[dY][Hyp]NT[Phe(2-Me)]GL[Arg(Me)]W-NH2
B24: des(1)-Ac-[D-Tyr2,Glu3,Thr5,Gly7Ψ((E)CH═CH)Leu8,Arg(Me)9,Trp10]MS10 (peptide)
peptide: Ac-[dY]ENTFGL[Arg(Me)]W-NH2
modifications: also: Gly7-Leu8 amide bond replaced by (E)-CH═CH-
B25: des(1)-Ac-[D-Tyr2,Hyp3,Thr5,Phe(3Me)6,Arg(Me)9,Trp10]MS10 (peptide)
peptide: Ac-[dY][Hyp]NT[Phe(3-Me)]GL[Arg(Me)]W-NH2
B26: des(1)-Ac-[D-Tyr2,Hyp3,Thr5,Ser7,Arg(Me)9,Trp10]MS10 (peptide)
peptide: Ac-[dY][Hyp]NTFSL[Arg(Me)]W-NH2
SMILES: CNC(=N)NCCC[C@H](NC(=O)[C@H](CC(C)C)NC(=O)[C@H](CO)NC(=O)[C@H](Cc1ccccc1)NC(=O)[C@@H](NC(=O)[C@H](CC(N)=O)NC(=O)[C@@H]1C[C@@H](O)CN1C(=O)[C@@H](Cc1ccc(O)cc1)NC(C)=O)[C@@H](C)O)C(=O)N[C@@H](Cc1c[nH]c2ccccc12)C(N)=O
B27: des(1)-Ac-[D-Tyr2,Hyp3,Alb4,Thr5,Cha6,Gly7Ψ((E)CH═CH)Leu8,Arg(Me)9,Trp10]MS10 (peptide)
peptide: Ac-[dY][Hyp][Dap(CONH2)]T[Cha]GL[Arg(Me)]W-NH2
modifications: also: Gly7-Leu8 amide bond replaced by (E)-CH═CH-
B28: des(1)-Ac-[D-Tyr2,Hyp3,Glu4,Thr5,Cha6,Gly7Ψ((E)CH═CH)Leu8,Arg(Me)9,Trp10]MS10 (peptide)
peptide: Ac-[dY][Hyp]ET[Cha]GL[Arg(Me)]W-NH2
modifications: also: Gly7Ψ((E)CH═CH)Leu8: amide between Gly and Leu replaced by (E) alkene
B29: des(1)-Ac-[D-Tyr2,Hyp3,Thr5,Phe6Ψ((R)CHOH-CH2)Gly7,Arg(Me)9,Trp10]MS10 (peptide)
peptide: Ac-[dY][Hyp]NTFGL[Arg(Me)]W-NH2
modifications: also: Phe5-Gly6 amide replaced by (R)CHOH-CH2

molecular target: human OT7T175 (metastin receptor) (human) (UniProt Q969F8); assay: cell-based or functional assay
Sequence of UniProt Q969F8 (Q969F8 whole entry L364H): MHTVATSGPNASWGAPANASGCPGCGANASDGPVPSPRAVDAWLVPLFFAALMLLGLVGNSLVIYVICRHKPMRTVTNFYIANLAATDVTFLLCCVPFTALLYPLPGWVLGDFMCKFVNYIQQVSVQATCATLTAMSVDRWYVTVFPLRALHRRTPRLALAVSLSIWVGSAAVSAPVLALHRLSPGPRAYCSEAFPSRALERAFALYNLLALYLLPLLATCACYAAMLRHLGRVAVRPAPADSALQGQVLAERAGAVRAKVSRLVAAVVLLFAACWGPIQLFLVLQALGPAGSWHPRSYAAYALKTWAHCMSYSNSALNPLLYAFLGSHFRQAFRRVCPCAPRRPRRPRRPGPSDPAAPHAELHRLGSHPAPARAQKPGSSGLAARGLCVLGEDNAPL

Specific Activity (EC50 of test compound based on EC50 of Metastin (45-54); intracellular calcium, FLIPR) (ratio to EC50 of Metastin (45-54)) | Binder
0.4 | B1
0.9 | B2
0.8 | B3
0.5 | B4
2.5 | B5
3.8 | B6
1 | B7
0.6 | B8
0.5 | B9
0.6 | B10
0.5 | B11
0.9 | B12
0.5 | B13
0.5 | B14
0.6 | B15
0.8 | B16
1.4 | B17
0.6 | B18
1.1 | B19
0.7 | B20
0.5 | B21
3.5 | B22
0.7 | B23
0.6 | B24
0.8 | B25
0.6 | B26
0.4 | B27
4.6 | B28
0.8 | B29
